We go through one substance from US20260125455A1.

For assay [1], the target named is C6 no His (human) (UniProt P13671). As to the kind of experiment: ELISA, wells coated with 'C6 no His', control mouse IgG; replicate 1.
In assay [2] the target is purified FIM1-2 domains of C6 (human) (UniProt P13671). As to the kind of experiment: ELISA, wells coated with FIM1-2_His, control mouse IgG; replicate 1.
The target in assay [3] is C6: 1-934_10xHis (human). As to the kind of experiment: ELISA, wells coated with the C6 construct, control mouse IgG; replicate 1. On the technique in general: In an ELISA, binding on a coated surface is turned into a signal by an enzyme label.
In assay [4] the target is C6Δ1-79: SP_79-934_10xHis (human). The description is as above.
In assay [5] the target is C6Δ762: 1-762_10xHis (human). The assay is described as above.
Assay [6] concerns the target C6Δ634: 1-634_10xHis (human). The assay is described as above.
Assay [7] concerns the target human complement protein C6 (human) (UniProt P13671). As to the kind of experiment: ELISA, wells coated with 'C6 from Comptech', control mouse IgG; replicate 2.
In assay [8] the target is C6 no His (human) (UniProt P13671). As to the kind of experiment: ELISA, wells coated with 'C6 no His', control mouse IgG; replicate 2.
Assay [9] concerns the target C6: 1-934_10xHis (human). As to the kind of experiment: ELISA, wells coated with the C6 construct, control mouse IgG; replicate 2.
The target of assay [10] is C6Δ1-79: SP_79-934_10xHis (human). The assay is described as above.
In assay [11] the target is C6Δ762: 1-762_10xHis (human). The assay is described as above.
The target of assay [12] is C6Δ634: 1-634_10xHis (human). The description is as above.
In assay [13] the target is purified FIM1-2 domains of C6 (human) (UniProt P13671). As to the kind of experiment: ELISA, wells coated with FIM1-2_His, control mouse IgG; replicate 2.
The target of assay [14] is human complement protein C6 (human) (UniProt P13671). As to the kind of experiment: ELISA, wells coated with 'C6 from Comptech', control mouse IgG; replicate 1.
Chain of human complement protein C6 (human) (P13671 22-934 limits assumed): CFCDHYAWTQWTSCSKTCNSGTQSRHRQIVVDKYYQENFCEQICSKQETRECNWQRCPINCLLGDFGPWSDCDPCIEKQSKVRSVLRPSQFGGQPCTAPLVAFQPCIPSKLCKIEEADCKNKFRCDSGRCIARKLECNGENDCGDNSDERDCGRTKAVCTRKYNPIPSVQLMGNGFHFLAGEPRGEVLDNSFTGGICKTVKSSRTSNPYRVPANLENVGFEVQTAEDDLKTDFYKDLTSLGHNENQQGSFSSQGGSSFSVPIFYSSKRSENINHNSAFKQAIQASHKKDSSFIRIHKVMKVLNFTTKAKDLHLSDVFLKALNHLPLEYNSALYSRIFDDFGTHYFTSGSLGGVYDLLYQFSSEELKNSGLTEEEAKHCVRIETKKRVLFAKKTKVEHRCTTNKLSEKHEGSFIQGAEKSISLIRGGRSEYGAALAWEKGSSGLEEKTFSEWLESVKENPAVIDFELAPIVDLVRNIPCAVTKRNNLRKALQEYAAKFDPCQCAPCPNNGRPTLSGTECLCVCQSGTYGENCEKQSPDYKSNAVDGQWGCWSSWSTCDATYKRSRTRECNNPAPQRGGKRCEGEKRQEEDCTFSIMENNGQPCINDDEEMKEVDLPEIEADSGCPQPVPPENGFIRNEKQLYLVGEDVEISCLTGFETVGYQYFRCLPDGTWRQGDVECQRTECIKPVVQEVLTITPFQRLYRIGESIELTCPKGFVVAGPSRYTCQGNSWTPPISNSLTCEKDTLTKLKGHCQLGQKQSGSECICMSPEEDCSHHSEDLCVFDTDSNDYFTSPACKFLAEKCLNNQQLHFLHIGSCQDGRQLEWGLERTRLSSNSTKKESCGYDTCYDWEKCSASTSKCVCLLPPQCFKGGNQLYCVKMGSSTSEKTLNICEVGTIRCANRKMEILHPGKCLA

Chain of C6Δ634: 1-634_10xHis (human) (P13671 22-634, stated change not applied): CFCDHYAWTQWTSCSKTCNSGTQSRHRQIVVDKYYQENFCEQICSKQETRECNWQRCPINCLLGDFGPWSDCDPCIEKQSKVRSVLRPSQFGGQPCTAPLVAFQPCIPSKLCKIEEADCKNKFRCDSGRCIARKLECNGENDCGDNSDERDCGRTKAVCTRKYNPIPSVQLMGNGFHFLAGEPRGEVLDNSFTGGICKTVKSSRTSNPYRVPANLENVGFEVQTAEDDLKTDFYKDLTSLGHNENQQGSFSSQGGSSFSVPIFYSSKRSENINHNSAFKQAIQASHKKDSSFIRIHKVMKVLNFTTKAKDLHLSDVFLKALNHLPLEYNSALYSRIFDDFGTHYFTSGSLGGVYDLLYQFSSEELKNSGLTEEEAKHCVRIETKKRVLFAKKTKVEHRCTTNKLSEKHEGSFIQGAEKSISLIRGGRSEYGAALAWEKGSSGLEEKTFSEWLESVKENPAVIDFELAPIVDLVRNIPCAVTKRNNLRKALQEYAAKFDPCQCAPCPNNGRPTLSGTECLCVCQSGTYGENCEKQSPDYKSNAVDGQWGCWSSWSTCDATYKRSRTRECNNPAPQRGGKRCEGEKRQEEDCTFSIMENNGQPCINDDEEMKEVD
Chain of C6 no His (human) (P13671 22-934 limits assumed): as the sequence (P13671 22-934 limits assumed) above
Chain of C6: 1-934_10xHis (human) (P13671 22-934): as the sequence (P13671 22-934 limits assumed) above
Chain of purified FIM1-2 domains of C6 (human) (P13671 766-934 limits assumed): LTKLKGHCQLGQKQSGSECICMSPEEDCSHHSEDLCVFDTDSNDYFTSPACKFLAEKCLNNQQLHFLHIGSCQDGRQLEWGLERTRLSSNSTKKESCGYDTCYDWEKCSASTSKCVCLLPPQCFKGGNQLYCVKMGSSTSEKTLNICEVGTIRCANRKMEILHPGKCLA
Chain of C6Δ1-79: SP_79-934_10xHis (human) (P13671 79-934, stated change not applied): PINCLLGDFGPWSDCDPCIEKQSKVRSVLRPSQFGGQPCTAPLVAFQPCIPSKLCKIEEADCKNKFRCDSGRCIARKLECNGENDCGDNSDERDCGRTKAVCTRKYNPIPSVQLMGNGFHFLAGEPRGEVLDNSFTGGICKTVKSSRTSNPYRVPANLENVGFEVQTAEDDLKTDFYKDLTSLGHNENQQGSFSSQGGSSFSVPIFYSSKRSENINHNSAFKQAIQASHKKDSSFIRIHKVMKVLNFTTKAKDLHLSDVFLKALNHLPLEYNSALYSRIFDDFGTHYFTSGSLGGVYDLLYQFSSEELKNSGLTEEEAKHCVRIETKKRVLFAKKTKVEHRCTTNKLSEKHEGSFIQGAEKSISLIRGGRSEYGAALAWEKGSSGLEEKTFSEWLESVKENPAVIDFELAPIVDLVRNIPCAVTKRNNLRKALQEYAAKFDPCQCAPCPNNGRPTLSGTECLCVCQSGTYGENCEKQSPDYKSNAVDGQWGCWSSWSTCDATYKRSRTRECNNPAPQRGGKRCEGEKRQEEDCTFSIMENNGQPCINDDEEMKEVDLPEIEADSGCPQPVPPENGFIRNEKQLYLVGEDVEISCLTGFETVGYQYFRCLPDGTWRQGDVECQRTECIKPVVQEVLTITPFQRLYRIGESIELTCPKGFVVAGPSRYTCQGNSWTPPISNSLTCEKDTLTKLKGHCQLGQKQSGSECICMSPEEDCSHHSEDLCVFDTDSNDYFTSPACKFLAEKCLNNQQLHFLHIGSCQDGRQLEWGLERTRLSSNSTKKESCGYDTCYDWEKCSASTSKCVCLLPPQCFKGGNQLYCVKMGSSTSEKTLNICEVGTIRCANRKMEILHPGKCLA
Chain of C6Δ762: 1-762_10xHis (human) (P13671 22-762, stated change not applied): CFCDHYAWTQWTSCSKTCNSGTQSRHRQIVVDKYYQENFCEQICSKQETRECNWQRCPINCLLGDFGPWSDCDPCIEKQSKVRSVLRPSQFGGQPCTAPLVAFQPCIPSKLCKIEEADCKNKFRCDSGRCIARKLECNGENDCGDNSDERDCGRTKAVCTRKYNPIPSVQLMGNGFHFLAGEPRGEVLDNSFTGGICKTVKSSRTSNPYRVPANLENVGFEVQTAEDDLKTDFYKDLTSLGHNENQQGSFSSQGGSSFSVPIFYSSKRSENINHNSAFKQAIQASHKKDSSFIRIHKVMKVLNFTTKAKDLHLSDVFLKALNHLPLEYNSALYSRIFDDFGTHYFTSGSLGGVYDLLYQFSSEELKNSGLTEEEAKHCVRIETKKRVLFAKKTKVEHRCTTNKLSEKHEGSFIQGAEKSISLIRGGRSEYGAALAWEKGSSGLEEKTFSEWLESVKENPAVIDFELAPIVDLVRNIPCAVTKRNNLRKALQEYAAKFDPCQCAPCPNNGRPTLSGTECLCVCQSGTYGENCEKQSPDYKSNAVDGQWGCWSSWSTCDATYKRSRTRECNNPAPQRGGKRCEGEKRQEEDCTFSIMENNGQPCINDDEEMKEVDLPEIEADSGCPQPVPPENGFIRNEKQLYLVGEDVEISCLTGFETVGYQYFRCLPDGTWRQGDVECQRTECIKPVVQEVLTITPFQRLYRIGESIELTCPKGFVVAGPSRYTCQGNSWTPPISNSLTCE

In the case of mIgG (antibody), the ELISA plate reading (no name or unit printed) in assay [1] was 0.0488; in assay [2], 0.0413; in assay [3] it was 0.0472; in assay [4] it was 0.0811; in assay [5], 0.0623; in assay [6], 0.0441. In addition, the ELISA plate reading (no name or unit printed) is 0.0728 in [7]; 0.115 in assay [8]; 0.0481 in [9]; 0.0935 in assay [10]; 0.0648 in assay [11]; 0.0472 in assay [12]. Besides, the results for the ELISA plate reading (no name or unit printed) in [13] and in assay [14] were 0.0429 and 0.0666, respectively.
